Assay results from the supplement of paper PMC7877785.
± gives the uncertainty stated by the source.

Test: self-splicing fitness, log relative to wild type (ln ratio); higher = more splicing; Tetrahymena group I intron in knt gene, E. coli kanamycin selection, DiMSum; sequences stand for … in CUCUCU…GGAGGGAAAAGUUAUCAGGCAUGCACCUGGUAGCUAGUCUUUAAACCAAUAGAUUGCAUCGGUUUAAAAGGCAAGACCGUCAAAUUGCGGGAAAGGGGUCAACAGCCGUUCAGUACCAAGUCUCAGGGGAAACUUUGAGAUGGCCUUGCAAAGGGUAUGGUAAUAAGCUGACGGACAUGGUCCUAACCACGCAGCCAAGUCCUAAGUCAACAGAUCUUCUGUUGAUAUGGAUGCAGUUCACAGACUAAAUGUCGGUCGGGGAAGAUGUAUUCUUCUCAUAAGAUAUAGUCGGACCUCUCCUUAAUGGGAGCUAGCGGAUGAAGUGAUGCAACACUGGAGCCGCUGGGAACUAAUUUGUAUGCGAAAGUAUAUUGAUUAGUUUUGGAGUACUCGUGGUCG
Procedure, shortened: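 A randomised library covering all eight P1ex-region intron nucleotides was built with the intron in the knt kanamycin-resistance gene on pET-22b(+) and held in E. coli BL21(DE3). Cells were grown overnight at 37°C or 30°C on LB agar, with or without 25 μg/mL kanamycin, plus 100 μg/mL carbenicillin, 50 μM IPTG and 0.2% rhamnose, and pooled colonies were amplicon-sequenced on an Illumina HiSeq 2500. DiMSum fitness is the error-weighted combination of wild-type-normalised replicate fold changes, kanamycin versus none.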

## ACGGAGCAAUAUUACGGCCG
30 °C
  self-splicing fitness (ln): -1.98 ± 0.16
37 °C
  self-splicing fitness (ln): -2.03 ± 0.28

## ACGGAGCAAUAUUACGGCUA
30 °C
  self-splicing fitness (ln): -1.96 ± 0.21
37 °C
  self-splicing fitness (ln): -0.548 ± 0.14

## ACGGAGCAAUAUUACGGCUU
30 °C
  self-splicing fitness (ln): -3.11 ± 0.4

## ACGGAGCAAUAUUACGGGAA
30 °C
  self-splicing fitness (ln): -4.37 ± 0.36
37 °C
  self-splicing fitness (ln): -2.03 ± 0.31

## ACGGAGCAAUAUUACGGGCU
30 °C
  self-splicing fitness (ln): -2.7 ± 0.25
37 °C
  self-splicing fitness (ln): -2.43 ± 0.27

## ACGGAGCAAUAUUACGUAUC
30 °C
  self-splicing fitness (ln): -2.75 ± 0.2
37 °C
  self-splicing fitness (ln): -2.52 ± 0.29

## ACGGAGCAAUAUUACGUCGU
30 °C
  self-splicing fitness (ln): -2.98 ± 0.26
37 °C
  self-splicing fitness (ln): -2.48 ± 0.19

## ACGGAGCAAUAUUACGUGGU
30 °C
  self-splicing fitness (ln): -3.91 ± 0.4
37 °C
  self-splicing fitness (ln): -1.08 ± 0.2

## ACGGAGCAAUAUUACGUGUA
30 °C
  self-splicing fitness (ln): -3.72 ± 0.29
37 °C
  self-splicing fitness (ln): -3.03 ± 0.23

## ACGGAGCAAUAUUACGUUCG
30 °C
  self-splicing fitness (ln): -1.33 ± 0.097
37 °C
  self-splicing fitness (ln): -0.333 ± 0.13

## ACGGAGCAAUAUUACGUUCU
30 °C
  self-splicing fitness (ln): -3.16 ± 0.31
37 °C
  self-splicing fitness (ln): -2.52 ± 0.22

## ACGGAGCAAUAUUACGUUUG
30 °C
  self-splicing fitness (ln): -2.3 ± 0.12
37 °C
  self-splicing fitness (ln): -2.31 ± 0.19

## ACGUAGCAAUAUUACGAAGG
30 °C
  self-splicing fitness (ln): -2.19 ± 0.21
37 °C
  self-splicing fitness (ln): -3.97 ± 0.46

## ACGUAGCAAUAUUACGAAGU
30 °C
  self-splicing fitness (ln): -2.97 ± 0.2
37 °C
  self-splicing fitness (ln): -2.86 ± 0.21

## ACGUAGCAAUAUUACGACAC
30 °C
  self-splicing fitness (ln): -1.46 ± 0.21
37 °C
  self-splicing fitness (ln): -0.658 ± 0.18

## ACGUAGCAAUAUUACGACGU
30 °C
  self-splicing fitness (ln): -2.97 ± 0.15
37 °C
  self-splicing fitness (ln): -2.31 ± 0.19

## ACGUAGCAAUAUUACGAGAC
30 °C
  self-splicing fitness (ln): -2.37 ± 0.3

## ACGUAGCAAUAUUACGCACA
30 °C
  self-splicing fitness (ln): -0.463 ± 0.12
37 °C
  self-splicing fitness (ln): -0.501 ± 0.13

## ACGUAGCAAUAUUACGCAUA
30 °C
  self-splicing fitness (ln): -1.82 ± 0.13
37 °C
  self-splicing fitness (ln): -1.2 ± 0.12

## ACGUAGCAAUAUUACGCCAG
30 °C
  self-splicing fitness (ln): -1.59 ± 0.18
37 °C
  self-splicing fitness (ln): -2.19 ± 0.45

## ACGUAGCAAUAUUACGCCUC
30 °C
  self-splicing fitness (ln): -2.48 ± 0.38
37 °C
  self-splicing fitness (ln): -2.16 ± 0.41

## ACGUAGCAAUAUUACGCGCA
30 °C
  self-splicing fitness (ln): -0.687 ± 0.076
37 °C
  self-splicing fitness (ln): -0.337 ± 0.097

## ACGUAGCAAUAUUACGGAAG
30 °C
  self-splicing fitness (ln): -3.32 ± 0.3
37 °C
  self-splicing fitness (ln): -1.91 ± 0.28

## ACGUAGCAAUAUUACGGAAU
30 °C
  self-splicing fitness (ln): -2.29 ± 0.15
37 °C
  self-splicing fitness (ln): -2.07 ± 0.17

## ACGUAGCAAUAUUACGGACG
30 °C
  self-splicing fitness (ln): -1.88 ± 0.17
37 °C
  self-splicing fitness (ln): -0.579 ± 0.13

## ACGUAGCAAUAUUACGGAUC
30 °C
  self-splicing fitness (ln): -1.97 ± 0.096
37 °C
  self-splicing fitness (ln): -0.313 ± 0.097

## ACGUAGCAAUAUUACGGAUG
30 °C
  self-splicing fitness (ln): -4.2 ± 0.24
37 °C
  self-splicing fitness (ln): -2.42 ± 0.21

## ACGUAGCAAUAUUACGGUGU
30 °C
  self-splicing fitness (ln): -2.43 ± 0.11
37 °C
  self-splicing fitness (ln): -1.81 ± 0.14

## ACGUAGCAAUAUUACGUACU
30 °C
  self-splicing fitness (ln): -1.11 ± 0.11
37 °C
  self-splicing fitness (ln): -2 ± 0.14

## ACGUAGCAAUAUUACGUAUU
30 °C
  self-splicing fitness (ln): -3.93 ± 0.17
37 °C
  self-splicing fitness (ln): -2.48 ± 0.15

## ACGUAGCAAUAUUACGUGGA
30 °C
  self-splicing fitness (ln): -3.46 ± 0.32
37 °C
  self-splicing fitness (ln): -2.2 ± 0.23

## ACGUAGCAAUAUUACGUUAG
30 °C
  self-splicing fitness (ln): -3.99 ± 0.16
37 °C
  self-splicing fitness (ln): -2.13 ± 0.15

## ACGUAGCAAUAUUACGUUCU
30 °C
  self-splicing fitness (ln): -2.3 ± 0.097
37 °C
  self-splicing fitness (ln): -0.807 ± 0.076

## ACUAAGCAAUAUUACGAAAG
30 °C
  self-splicing fitness (ln): -1.76 ± 0.14
37 °C
  self-splicing fitness (ln): -1.55 ± 0.16

## ACUAAGCAAUAUUACGAACC
30 °C
  self-splicing fitness (ln): -0.514 ± 0.16
37 °C
  self-splicing fitness (ln): -1.24 ± 0.24

## ACUAAGCAAUAUUACGACUC
30 °C
  self-splicing fitness (ln): -0.352 ± 0.12
37 °C
  self-splicing fitness (ln): 0.402 ± 0.14

## ACUAAGCAAUAUUACGAUCC
30 °C
  self-splicing fitness (ln): -1.02 ± 0.14
37 °C
  self-splicing fitness (ln): -0.609 ± 0.16

## ACUAAGCAAUAUUACGAUGU
30 °C
  self-splicing fitness (ln): -1.62 ± 0.1
37 °C
  self-splicing fitness (ln): -1.38 ± 0.13

## ACUAAGCAAUAUUACGAUUG
30 °C
  self-splicing fitness (ln): -2.62 ± 0.13
37 °C
  self-splicing fitness (ln): -1.5 ± 0.14

## ACUAAGCAAUAUUACGCAGC
30 °C
  self-splicing fitness (ln): -2.94 ± 0.36
37 °C
  self-splicing fitness (ln): -0.621 ± 0.18

## ACUAAGCAAUAUUACGCCGC
30 °C
  self-splicing fitness (ln): -3.02 ± 0.35
37 °C
  self-splicing fitness (ln): -1.86 ± 0.41

## ACUAAGCAAUAUUACGCCUU
30 °C
  self-splicing fitness (ln): -1.09 ± 0.082
37 °C
  self-splicing fitness (ln): -0.381 ± 0.11
